Measured values as given in EP4059514A1 (Xencor, Inc., dated 2022).

Assays:
human CD3 = human CD3 (human, UniProt P07766 23-126); assay: method not stated in the legend (Figure 142)
cyno CD3 = target: T1, cyno CD3 (cyno, UniProt Q95LI5 22-117); assay: method not stated in the legend (Figure 143)
T1 construct: also called cynomolgus monkey CD3
T1 sequence (looked up): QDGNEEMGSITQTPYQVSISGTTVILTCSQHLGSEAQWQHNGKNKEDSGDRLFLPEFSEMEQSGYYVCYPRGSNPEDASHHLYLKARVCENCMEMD

human CD3, sequence (P07766 23-126): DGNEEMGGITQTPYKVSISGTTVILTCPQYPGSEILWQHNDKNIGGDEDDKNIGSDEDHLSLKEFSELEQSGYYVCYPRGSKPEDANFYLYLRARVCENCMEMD

B1: XENP14045 (anti-CD123 x anti-CD3) bispecific (bispecific antibody)
chain 1: QVQLQQSGAEVKKPGASVKVSCKASGYTFTDYYMKWVKQSHGKSLEWMGDIIPSNGATFYNQKFKGKATLTVDRSTSTAYMELSSLRSEDTAVYYCARSHLLRASWFAYWGQGTLVTVSSASTKGPSVFPLAPSSKSTSGGTAALGCLVKDYFPEPVTVSWNSGALTSGVHTFPAVLQSSGLYSLSSVVTVPSSSLGTQTYICNVNHKPSDTKVDKKVEPKSCDKTHTCPPCPAPPVAGPSVFLFPPKPKDTLMISRTPEVTCVVVDVKHEDPEVKFNWYVDGVEVHNAKTKPREEEYNSTYRVVSVLTVLHQDWLNGKEYKCKVSNKALPAPIEKTISKAKGQPREPQVYTLPPSREEMTKNQVSLTCDVSGFYPSDIAVEWESDGQPENNYKTTPPVLDSDGSFFLYSKLTVDKSRWEQGDVFSCSVMHEALHNHYTQKSLSLSPGK
chain 2: not shown
chain 3: not shown
Kd (human CD3): 8.1 nM
Kd (cyno CD3): 5.7 nM
